{"source": "patent US20250320281A1", "test_in_all_cases": "cell-based or functional assay", "key": {"[1]": {"biological_target": "HIV-1 SF162 Env on pseudotyped virus (HIV-1 isolate SF162)"}, "[2]": {"biological_target": "HIV-1 APV13 envelope glycoprotein (Env) on pseudovirus (HIV-1)"}, "[3]": {"biological_target": "HIV-1 APV17 envelope glycoprotein (Env) on pseudovirus (HIV-1)"}, "[4]": {"biological_target": "HIV-1 APV6 envelope glycoprotein (Env) on pseudovirus (HIV-1)"}, "[5]": {"biological_target": "HIV-1 JRFL envelope glycoprotein (Env) on pseudovirus (HIV-1)"}, "[6]": {"biological_target": "HIV-1 MGRM-A-010 envelope glycoprotein (Env) on pseudovirus (HIV-1)"}, "[7]": {"biological_target": "HIV-1 MGRM-C-026 envelope glycoprotein (Env) on pseudovirus (HIV-1)"}, "[8]": {"biological_target": "HIV-1 MGRM-C-027 envelope glycoprotein (Env) on pseudovirus (HIV-1)"}, "[9]": {"biological_target": "HIV-1 MGRM-C-028 envelope glycoprotein (Env) on pseudovirus (HIV-1)"}, "[10]": {"biological_target": "HIV-1 MGRM-D-001 envelope glycoprotein (Env) on pseudovirus (HIV-1)"}}, "data": [{"substance": "1495_C14 (PGC14) (antibody)", "values": [{"measurement": "Neutralizing Antibody Assay: IC50; Virus/Ab Incubation 1 hour", "setting": "[1]", "result": 0.0069, "unit": "µg/mL"}, {"measurement": "Neutralizing Antibody Assay: IC50; Virus/Ab Incubation 18 hour", "setting": "[1]", "result": "< 0.0025", "unit": "µg/mL"}]}, {"substance": "4858_P08 (PGT-123) (antibody)", "values": [{"measurement": "neutralization IC50", "setting": "[2]", "result": 0.222, "unit": "µg/mL"}, {"measurement": "neutralization IC80", "setting": "[2]", "result": 0.879, "unit": "µg/mL"}, {"measurement": "neutralization IC90", "setting": "[2]", "result": 1.87, "unit": "µg/mL"}, {"measurement": "neutralization IC95", "setting": "[2]", "result": 3.5, "unit": "µg/mL"}, {"measurement": "neutralization IC50", "setting": "[3]", "result": 0.18, "unit": "µg/mL"}, {"measurement": "neutralization IC80", "setting": "[3]", "result": 0.539, "unit": "µg/mL"}, {"measurement": "neutralization IC90", "setting": "[3]", "result": 1.01, "unit": "µg/mL"}, {"measurement": "neutralization IC95", "setting": "[3]", "result": 1.75, "unit": "µg/mL"}, {"measurement": "neutralization IC50", "setting": "[4]", "result": 0.0328, "unit": "µg/mL"}, {"measurement": "neutralization IC80", "setting": "[4]", "result": 0.145, "unit": "µg/mL"}, {"measurement": "neutralization IC90", "setting": "[4]", "result": 0.339, "unit": "µg/mL"}, {"measurement": "neutralization IC95", "setting": "[4]", "result": 0.726, "unit": "µg/mL"}, {"measurement": "neutralization IC50", "setting": "[5]", "result": 0.0283, "unit": "µg/mL"}, {"measurement": "neutralization IC80", "setting": "[5]", "result": 0.0904, "unit": "µg/mL"}, {"measurement": "neutralization IC90", "setting": "[5]", "result": 0.178, "unit": "µg/mL"}, {"measurement": "neutralization IC95", "setting": "[5]", "result": 0.332, "unit": "µg/mL"}, {"measurement": "neutralization IC50", "setting": "[6]", "result": 0.492, "unit": "µg/mL"}, {"measurement": "neutralization IC80", "setting": "[6]", "result": 2.79, "unit": "µg/mL"}, {"measurement": "neutralization IC90", "setting": "[6]", "result": 6.44, "unit": "µg/mL"}, {"measurement": "neutralization IC95", "setting": "[6]", "result": "> 10", "unit": "µg/mL"}, {"measurement": "neutralization IC50", "setting": "[7]", "result": 0.0031, "unit": "µg/mL"}, {"measurement": "neutralization IC80", "setting": "[7]", "result": 0.0094, "unit": "µg/mL"}, {"measurement": "neutralization IC90", "setting": "[7]", "result": 0.0183, "unit": "µg/mL"}, {"measurement": "neutralization IC95", "setting": "[7]", "result": 0.0338, "unit": "µg/mL"}, {"measurement": "neutralization IC50", "setting": "[8]", "result": 0.0169, "unit": "µg/mL"}, {"measurement": "neutralization IC80", "setting": "[8]", "result": 0.149, "unit": "µg/mL"}, {"measurement": "neutralization IC90", "setting": "[8]", "result": "> 10", "unit": "µg/mL"}, {"measurement": "neutralization IC95", "setting": "[8]", "result": "> 10", "unit": "µg/mL"}, {"measurement": "neutralization IC50", "setting": "[9]", "result": 0.443, "unit": "µg/mL"}, {"measurement": "neutralization IC80", "setting": "[9]", "result": 2.8, "unit": "µg/mL"}, {"measurement": "neutralization IC90", "setting": "[9]", "result": 7.11, "unit": "µg/mL"}, {"measurement": "neutralization IC95", "setting": "[9]", "result": "> 10", "unit": "µg/mL"}, {"measurement": "neutralization IC50", "setting": "[10]", "result": 0.215, "unit": "µg/mL"}, {"measurement": "neutralization IC80", "setting": "[10]", "result": 0.678, "unit": "µg/mL"}, {"measurement": "neutralization IC90", "setting": "[10]", "result": 1.31, "unit": "µg/mL"}, {"measurement": "neutralization IC95", "setting": "[10]", "result": 2.33, "unit": "µg/mL"}]}, {"substance": "5141_B17 (PGT-126) (antibody)", "values": [{"measurement": "IC50, pseudovirus neutralization", "setting": "[2]", "result": 0.012, "unit": "µg/mL"}, {"measurement": "IC80 (pseudovirus neutralization)", "setting": "[2]", "result": 0.0411, "unit": "µg/mL"}, {"measurement": "IC90 (pseudovirus neutralization)", "setting": "[2]", "result": 0.084, "unit": "µg/mL"}, {"measurement": "IC95 (pseudovirus neutralization)", "setting": "[2]", "result": 0.162, "unit": "µg/mL"}, {"measurement": "IC50, pseudovirus neutralization", "setting": "[3]", "result": 0.501, "unit": "µg/mL"}, {"measurement": "IC80 (pseudovirus neutralization)", "setting": "[3]", "result": 4.43, "unit": "µg/mL"}, {"measurement": "IC90 (pseudovirus neutralization)", "setting": "[3]", "result": "> 10", "unit": "µg/mL"}, {"measurement": "IC95 (pseudovirus neutralization)", "setting": "[3]", "result": "> 10", "unit": "µg/mL"}, {"measurement": "IC50, pseudovirus neutralization", "setting": "[4]", "result": 0.0249, "unit": "µg/mL"}, {"measurement": "IC80 (pseudovirus neutralization)", "setting": "[4]", "result": 0.0681, "unit": "µg/mL"}, {"measurement": "IC90 (pseudovirus neutralization)", "setting": "[4]", "result": 0.123, "unit": "µg/mL"}, {"measurement": "IC95 (pseudovirus neutralization)", "setting": "[4]", "result": 0.213, "unit": "µg/mL"}, {"measurement": "IC50, pseudovirus neutralization", "setting": "[5]", "result": 0.014, "unit": "µg/mL"}, {"measurement": "IC80 (pseudovirus neutralization)", "setting": "[5]", "result": 0.0454, "unit": "µg/mL"}, {"measurement": "IC90 (pseudovirus neutralization)", "setting": "[5]", "result": 0.09, "unit": "µg/mL"}, {"measurement": "IC95 (pseudovirus neutralization)", "setting": "[5]", "result": 0.169, "unit": "µg/mL"}, {"measurement": "IC50, pseudovirus neutralization", "setting": "[6]", "result": 0.0033, "unit": "µg/mL"}, {"measurement": "IC80 (pseudovirus neutralization)", "setting": "[6]", "result": 0.0137, "unit": "µg/mL"}, {"measurement": "IC90 (pseudovirus neutralization)", "setting": "[6]", "result": 0.0316, "unit": "µg/mL"}, {"measurement": "IC95 (pseudovirus neutralization)", "setting": "[6]", "result": 0.0687, "unit": "µg/mL"}, {"measurement": "IC50, pseudovirus neutralization", "setting": "[7]", "result": 0.0076, "unit": "µg/mL"}, {"measurement": "IC80 (pseudovirus neutralization)", "setting": "[7]", "result": 0.0345, "unit": "µg/mL"}, {"measurement": "IC90 (pseudovirus neutralization)", "setting": "[7]", "result": 0.0831, "unit": "µg/mL"}, {"measurement": "IC95 (pseudovirus neutralization)", "setting": "[7]", "result": 0.185, "unit": "µg/mL"}, {"measurement": "IC50, pseudovirus neutralization", "setting": "[8]", "result": 1.14, "unit": "µg/mL"}, {"measurement": "IC80 (pseudovirus neutralization)", "setting": "[8]", "result": "> 10", "unit": "µg/mL"}, {"measurement": "IC90 (pseudovirus neutralization)", "setting": "[8]", "result": "> 10", "unit": "µg/mL"}, {"measurement": "IC95 (pseudovirus neutralization)", "setting": "[8]", "result": "> 10", "unit": "µg/mL"}, {"measurement": "IC50, pseudovirus neutralization", "setting": "[9]", "result": 0.283, "unit": "µg/mL"}, {"measurement": "IC80 (pseudovirus neutralization)", "setting": "[9]", "result": 2.62, "unit": "µg/mL"}, {"measurement": "IC90 (pseudovirus neutralization)", "setting": "[9]", "result": "> 10", "unit": "µg/mL"}, {"measurement": "IC95 (pseudovirus neutralization)", "setting": "[9]", "result": "> 10", "unit": "µg/mL"}, {"measurement": "IC50, pseudovirus neutralization", "setting": "[10]", "result": 0.0639, "unit": "µg/mL"}, {"measurement": "IC80 (pseudovirus neutralization)", "setting": "[10]", "result": 0.333, "unit": "µg/mL"}, {"measurement": "IC90 (pseudovirus neutralization)", "setting": "[10]", "result": 0.832, "unit": "µg/mL"}, {"measurement": "IC95 (pseudovirus neutralization)", "setting": "[10]", "result": 1.8, "unit": "µg/mL"}]}]}
